{"source": "the DeepSol protein solubility set"}
{"assay": "soluble on expression in E. coli; label from the status in PepcDB or PDB records"}
{"sequence": "MGSDKIHHHHHHWARTVWPRLYWFVEGKLYRWLQSFIAYWGYTAGYDVYEYGDDVTTYYRDERVLMMCNHQSTADVPTLMTVLQNKGVASRKTLWLMDVMFRWTPFGIIGNNHGDYFIQQGKATRDKELIRLKKHLHDVFWDRDRRWVILFPEGGFYYKRVESSQSYGKKNGFPHLLYTTLPRMGAVQAILEEVGPRTEDSDEPRERSNSKLKLLQDTVGAIREKKYVKGE", "soluble on expression in E. coli": "not soluble"}
{"sequence": "MGSDKIHHHHHHMRAPQAQSKLSEVLEFLQQYEGTINPNKLIFGRWIKDAQALRLVDPSEGYMMEAWVYRAQGKLDKALEYMKNAYRLDSSSSSVNVNYASLLLSSGDFNESEKLCIKRIRLDRTNTDIFKILITNTLHTFNQDALFEAIELFIPTNPEAEKVIGQAKKRIFDFDHMQSTLESANLSIEVYKRFSSITQKVRNTRYIGESRTVINCEVNELGTFLLIDEALVNASIEDCLSMYDDLVEEIINDDHYFEEYKKIIFNFIPTTSTAINSAYQLEI", "soluble on expression in E. coli": "not soluble"}
{"sequence": "MAGRKSSRTAERVPTTQKPERKSAILSPHDELRERLLETAIDMKENIPQRNTRNSSVGSQKSDCSETRKRRSTKEGPAAKRHSGEKHRNGSREDSLEYISDDREVGSSSSQSSRTRGQPLPAMPEEEEVFDKSSSSDNLAESEESHEMVRLEERQDIEEEIEDDFDDEEEDVVNDKEEYEEIESEDEDDYPVQNEGFAVTKRLMNDEHMVTAPTFLSTAKCDGIGSPTKVWSLMVKRDEIPRATRFLLGNHPDMDDEKRRILIDWMMEVCESEKLHRETFHLAVDYVDRYLESSNVECSTDNFQLVGTAALFIAAKYEEIYPPKCIDFAHLTDSAFTCDNIRTMEVLIVKYIGWSLGPITSIQWLSTYLQLLGTGKKNKSDHYEEQNMYVPELLRSEYLEMCKILDFLLFEIDSFTFSYRTIAAAVLFVNYEPTCAVEKATGFMQAQLEKVIEYVEPVCRAFAKQRQLLDDVIPKHESIKSDDSHNIQVYVKRSSMEPIVKSERERIQHLKARRLHPQRLF", "soluble on expression in E. coli": "not soluble"}
{"sequence": "MENIMKITIINGSPRFKKSNSEILKNYLLNFIKENEINEFFSFSIKLDDDIKTDIYNSDILIFIFPLYVDSIPANLLDLLVRFEDENVINSKTKIYCIVNNGFFEGVQNHLAISQIRCWSKKVNAQWGQGIGVGGGELLSHLKKVPLGQGPLKNLGIILEKFSKNILSLKGDEDIYINPNYPKILYFLQANISWFIEGRKNKLKFRDLFKKILEHHHHHH", "soluble on expression in E. coli": "not soluble"}
{"sequence": "MVKSFRMKALIAGAAVAAAVSAGAVSDVPAAKVLQPTAAYAAETVFSQNNGASGFLPGRYDVQAMAPAMFNWSRESRFAGNTDGTLKWQNDIRTTPQNGAGAVIDGDGTVYLHSRDGEMKAFNPDGSVKWVTGNLGKTYTQSPVLGTNGVIYLASYDKKIYFIDKETGEILTTVPLSGGPSSETVIGSDGTLYFSTLDNYVHAIKPTSKSTWTERWKLKTNGVVSSVPVLAKNGTVYVGTYNYVFYAINSGTGQVKWSRTTSNAFKGYPVIDKDGNIYAGNQDGQLYAYTSTGSLKWTFPLNGFSSSSPAIDHNGNIYIGSGSGELFSISKNGDMNWSFYTDGPVRTAPLIDAKGTVYFGSDDMKVYAADANGNELWSYQTDSNVVSSPQLAEDGTLYIGSYTKLMAFGKLEHHHHHH", "soluble on expression in E. coli": "soluble"}
{"sequence": "MGSDKIHHHHHHMKEIVHLQSFLAVARTGSLTLAAEELHVTPSAVSHRLRQLEQRLGAKLLRRTPHGMALTGEGQRFKDRISDPIEAIEMALRPETGQEGPLTVSVMPWFASSWLMPRLKRFQLRCPDARIRIETSSQLSDLAHGHVTAALRFGRGDWPDIEVEPLFDEWVIPVASPDVVAQMGSNAQDPARWPRLPDPDDLWSSWFGDEVMGEAMRSSIELHDTSSLTEAAVNGMGVVLGRYTHVAPWLERGDLVTLASQWIRMPKRHYLVRSRHRPMHSCFPHFRRWLHDEVKKYQTSASSEFY", "soluble on expression in E. coli": "not soluble"}
{"sequence": "MGNSYITKEDNQISATSEQTEDSACLSAMVLTTNLVYPAVLNAAIDLNLFEIIAKATPPGAFMSPSEIASKLPASTQHSDLPNRLDRMLRLLASYSVLTSTTRTIEDGGAERVYGLSMVGKYLVPDESRGYLASFTTFLCYPALLQVWMNFKEAVVDEDIDLFKNVHGVTKYEFMGKDKKMNQIFNKSMVDVCATEMKRMLEIYTGFEGISTLVDVGGGSGRNLELIISKYPLIKGINFDLPQVIENAPPLSGIEHVGGDMFASVPQGDAMILKAVCHNWSDEKCIEFLSNCHKALSPNGKVIIVEFILPEEPNTSEESKLVSTLDNLMFITVGGRERTEKQYEKLSKLSGFSKFQVACRAFNSLGVMEFYK", "soluble on expression in E. coli": "soluble"}
{"sequence": "MAHHHHHHMSSATPPLPADSVTASAALRFSVDFDPSRADSKPSVLLLTQNVGGIEAALGTDAGLGETSPECPHSPLPENGGDTSAAFASVPKDFRGPSYIHVPDDIDSELGVSPVVRQQVAEFLADLRQWLHRLSYMSAAVRAAEASATASSAAPASVAGGAPSPPPSPTPCGAAANTEAYMRSYTPSVRPPLIDMVVLHFQEIGGKYKNKHFNEYFKEQIRTSLLPEAGWTSGLLMDERESGDTLSSSSYQRHRATSTVQALRRTSFEGSSTSNNNGNANGHVGDAHRLSDANSNDTDLTAELDADADAYFTAIGSIVFLSPRFMGIASCLSVPHRTYIPIVDDPLTYAGEAGRLFHSGKFAEAGRSRKGFLLLSLRLGTVQFNVCNVHLFNDDDNRVALKSSPSLYTGRRTRAITEAIAECSAVVDLSEPLFIFGDYNVRMDGKSFTEWVEEKMQMTVRAERKRLRCPEQFWELFTNPATQQELRTRFDIEPQHLMDEVALLSSVELAEMPIQFAPTYSRVAYRTRTGATTTSAGADAAALRDVAATPDAQQQIPTLKDLAGRADAIRAEEQEQTEAIRARPSVSTLLAPLASPLASVPLTHVAASPYRDNFCHDRLPAWCDRVMFNVAGLEWISGDRSRTAPPQPQAASSVSGSAASGAGGLKGRQRSGQGCWYAYAAIDFIHMDHDGVFMLF", "soluble on expression in E. coli": "not soluble"}
{"sequence": "GPGSMAKKEVVWLGTPTEADGSELSSPFTSRIGGSAVLFREAPTYSIFNCPKCRSSRWVSLLTQIYAPLDVYDRIVYVLICSSCSEGKGSFCFAVRSQNFNPSYVQSSPAPVVGGGEDEGITFVEDGDWGDDDPKYVDEGPNEVCITNLTCTTMADECKVGSPTQSTDVSSVLVPHGTKVPVEGFCYPCFVLNIFEEPPKPKLCYGTVPDQLLKAQQTYGEDAVETTVVEDEDEPLAEKLLRKYVDRIGRVPSQCVRWGPGQKPLRSSPAPIVIPRCPRCSNERRYELQLTSPIIYFLTKGKEEKDHSLHFGSVLVYTCGGNCNVQPYSLEHCVVEDEV", "soluble on expression in E. coli": "not soluble"}
{"sequence": "MPNYKLTYFNMRGRAEIIRYIFAYLDIQYEDHRIEQADWPEIKSTLPFGKIPILEVDGLTLHQSLAIARYLTKNTDLAGNTEMEQCHVDAIVDTLDDFMSCFPWAEKKQDVKEQMFNELLTYNAPHLMQDLDTYLGGREWLIGNSVTWADFYWEICSTTLLVFKPDLLDNHPRLVTLRKKVQAIPAVANWIKRRPQTKL", "soluble on expression in E. coli": "soluble"}
{"sequence": "SKKTVEFVDYVNPLMGTESTFAFSHGNTYPAVAVPWGMNFWSPQTGENGSGWMYTYTDSLMRGFRQTHQPSPWINDYGTFSIMPLAGELKMSHKERLVPFSHQQEKATPYNYSVTFNNGLQTSLSATSRGAVFEVSFPEKEDQYVVVDAYNGGSSITIEPEKRLVKGATRYNNGGVPDNFANYFMMEFSHPVIEYGTYNGDTLLHHQTDVAADYTCAYLKFDVPAGEKLTIRTASSFISPEQAAINFNREVADADVQLISGKAREQWNNYLGRVEAEGGTDEQLRTFYSCLYRTLLFPREFYEFDSQGNPVYYSPYDGNVHDGYMYTDNGFWDTFRAVHPLFTLLYPEVSERVTQSIINAYNESGFMPEWASPGHRGCMIGNNSVSLLVDAWMKGIQTVDAEKALEAMIHQTQARHAEIASVGRDGFEYYDKLGYVPYPEVPEATAKTLEYAYADWCIARFAESLGKQDIADQYYQKAPNYRNLYYPEHGFMWTKDAKGNWRDRFDATEWGGPFTEGSSWHWTWSVFHDPEGLSELMGGHEPMIARLDSMFVAPNTYNYGTYGFVIHEIAEMVALNMGQYAHGNQPVQHAIYLYDYIGQPWKTQYHLRNVMDKLYNSGSKGYCGDEDNGQTSAWYVFSAMGFYPVCPGMPEYAIGSPLFKKVTLHLPEGKNFVVSAADNAADRPYIRKALLNGQEFTRNYLTHDELKQGGELNLSMDSVPNQQRGTQPADFPYSYSK", "soluble on expression in E. coli": "soluble"}
{"sequence": "MTQEEMKHIDPSGNHTISHLCEAWKLSMRYQVKPSTFACYATIIQKHIRPSIGTVEMEEMNNEILSEFILDRQSRGLSANTMRLILFLLKSIIRAGERRGICPAEPLDFFLPKDRGYEMKLLSQDNRRKLLSWLAGCRTNFELGLLLSLSTGIRVGELCGMKWEDVDLEEGVLHIRRTVSRIRNTDQKNTAAKTVLYIGSPKTGTSQREIPLPDFMIPRLKEKKREAGCYLLTGRTGCMEPRGVQRRFKN", "soluble on expression in E. coli": "not soluble"}
